Target: the molecule itself
Experiment: crystal structure; crystals at 20°C by vapor diffusion, 0.2 M ammonium sulfate, 0.1 M trisodium citrate pH 5.6, 15% PEG 4000; space group C2221; one tetramer in the asymmetric unit; 2.57 Å

B1: Peptidoglycan deacetylase (HP0310, HpPgdA) from Helicobacter pylori (enzyme)
chain: MAKEILVAYGVDIDAVAGWLGSYGGEDSPDDISRGLFAGEVGIPRLLKLFKKYHLPATWFVPGHSIETFPEQMKMIVDAGHEVGAHGYSHENPIAMSTKQEEDVLLKSVELIKDLTGKAPTGYVAPWWEFSNITNELLLKHGFKYDHSLMHNDFTPYYVRVGDSWSKIDYSLEAKDWMKPLIRGVETNLVEIPANWYLDDLPPMMFIKKSPNSFGFVSPRDIGQMWIDQFDWVYREMDYAVFSMTIHPDVSARPQVLLMHEKIIEHINKHEGVRWVTFNEIADDFLKRNPRKK
notes: HP0310 (HpPgdA), peptidoglycan deacetylase, amplified from genomic H. pylori G27 with primers from the ATG to the stop codon; soluble protein of 293 amino acids; residues 2 to 291 visible in the crystal; Cloned in pET151 in frame with an N-terminal His-tag flanked by a TEV site; the entry of strain 26695 would be another; also called His tagged-Hp0310; H. pylori peptidoglycan deacetylase; source: …
- stoichiometry N: 4
